Reference: publication PMC5934386, “Active Site Gate Dynamics Modulate the Catalytic Activity of the Ubiquitination Enzyme E2-25K” (Scientific Reports, 2018)

Target: T1, Human ubiquitin (human, UniProt P0CG48 1-76)
T1 construct: ubiquitin, human; the cut product of the ubiquitin precursors; also called acceptor Ub; source: bought: BostonBiochem (lyophilized)
Experiment: NMR titration; 2D 1H-15N HSQC at 600 MHz; [U-15N]-E2-25K at 417-428 uM with ubiquitin at 0, 200, 400, 560, 790 and 1600 uM in six samples; PBS buffer (20 mM sodium phosphate, 150 mM NaCl, DTT, pH 7.4); chemical shift changes fit to a 1:1 binding isotherm; kon and koff from 15N lineshape analysis of G173 (Bloch-McConnell, two site exchange)
Settings: both partners purified

B1: Human E2-25K (enzyme, UniProt P61086 1-200, looked up)
chain: MANIAVQRIKREFKEVLKSEETSKNQIKVDLVDENFTELRGEIAGPPDTPYEGGRYQLEIKIPETYPFNPPKVRFITKIWHPNISSVTGAICLDILKDQWAAAMTLRTVLLSLQALLAAAEPDDPQDAVVANQYKQNPEMFKQTARLWAHVYAGAPVSSPEYTKKIENLCAMGFDRNAVIVALSSKSWDVETATELLLSN
notes: E2-25K (ubiquitin-conjugating enzyme, UBC core domain and UBA domain), human; called 'intact human E2-25K' in the results; cloned into pHis-parallel1; [U-15N]-labelled for the NMR titration; also called wildtype E2-25K; intact human E2-25K; source: E. coli BL21(DE3)-RIPL, purified (His-prep column, TEV cleavage, Superdex 75)
B1 was tested, and the Kd was 206 ± 30 µM, the koff was 5890 s⁻¹ and the kon was 2.9e+07 M⁻¹ s⁻¹.
